Here are results for four molecules from article PMC3987144 (The Journal of Cell Biology, 2014).

B1: His-SNAP25 (natural protein)
chain: MPADPSEEVAPQVPKTELEELQINAQGVADESLESTRRMLALCEESKEAGIRTLVALDDQGEQLDRIEEGMDQINADMREAEKNLSGMEKCCGICVLPCNKSQSFKEDDGTWKGNDDGKVVNNQPQRVMDDRNGMMAQAGYIGRITNDAREDEMEENMGQVNTMIGNLRNMALDMGSELENQNRQIDRINRKGESNEARIAVANQRAHQLLK

Test [1] addresses Syx1A (Syntaxin 1A), endogenous (Drosophila melanogaster (endogenous in adult fly heads)) (UniProt Q24547). Briefly: co-IP.
Test [2] addresses GST-Syx1A (Syntaxin 1A, 1-267 aa) (Drosophila melanogaster, UniProt Q24547 1-267). In words: pull-down.
Test [3] deals with GST-open Syx1A (Syx1A L168A/E169A mutant, 1-267 aa) (Drosophila melanogaster, UniProt Q24547 1-267, L168A | E169A). Briefly: pull-down.
Test [4] has as its target V100 (neuronal v-ATPase V0 subunit a1), endogenous (Drosophila melanogaster (endogenous in adult fly heads)) (UniProt Q8IML5). In words: co-IP.
For the test “His-SNAP25”, the target named is B1. In words: pull-down.

A value given as a limit tells only on which side of the number the result lay.

Syx1A (Syntaxin 1A), endogenous (Drosophila melanogaster (endogenous in adult fly heads)), sequence (Q24547 whole entry, the tested form may be a part): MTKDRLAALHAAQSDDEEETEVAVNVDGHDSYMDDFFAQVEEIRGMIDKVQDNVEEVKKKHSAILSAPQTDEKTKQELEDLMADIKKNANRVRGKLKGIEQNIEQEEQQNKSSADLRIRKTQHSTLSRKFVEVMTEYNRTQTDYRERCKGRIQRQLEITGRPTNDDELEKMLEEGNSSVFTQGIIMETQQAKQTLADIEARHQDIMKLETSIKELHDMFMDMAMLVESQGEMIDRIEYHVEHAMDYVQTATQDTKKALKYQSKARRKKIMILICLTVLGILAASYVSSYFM

In test [1], “V100 (neuronal v-ATPase V0 subunit a1), endogenous (from UniProt Q8IML5 1-833) (natural protein)” displayed a percent of V100 in a complex with Syx1A of under 50%.

With B1, the binding result in test [2] and in test [3] was “binds” throughout. The percent of total input in complex with V100 (% of total input) in test [4] was 1.

B2: His-n-Syb (neuronal Synaptobrevin, amino acids 1-104) (domain or fragment)
chain: MADAAPAGDAPPNAGAPAGEGGDGEIVGGPHNPQQIAAQKRLQQTQAQVDEVVDIMRTNVEKVLERDSKLSELDDRADALQQGASQFEQQAGKLKRKFWLQNLK
Turning to B2, the binding result in test [2] is reported as “binds”.

B3: GST-Syx1A-H3 (Syx1A SNARE domain, 200-267 aa) (domain or fragment)
chain: ARHQDIMKLETSIKELHDMFMDMAMLVESQGEMIDRIEYHVEHAMDYVQTATQDTKKALKYQSKARRK
With B3, in the test with His-SNAP25, the binding result is given as “binds”.
